# What was measured:
# [1] = target: SARS-CoV-2突变株D614G S蛋白 (spike protein of the D614G mutant strain, on live virus) (SARS-CoV-2 D614G mutant strain, UniProt P0DTC2 14-1273); assay: cell-based or functional assay
# [2] = target: SARS-CoV-2突变株501Y.V2 (B.1.351) S蛋白 (spike protein of 501Y.V2, on live virus) (SARS-CoV-2 501Y.V2 (B.1.351), UniProt P0DTC2 14-1273); assay: cell-based or functional assay
binder,measurement,setting,value
"单克隆抗体35B5 (monoclonal antibody 35B5) (antibody, V domains shown, not shown: large carriers) VH: QVQLLESGGGLVQPGRSLRLSCAASGFTFDDYAMHWVRQAPGKGLEWVSGVSWNSGTIGYADSVKGRFTISRDNAKNSLYLHMRSLRAEDTALYYCAKAVEMVRGLMGLGADPEYGMDVWGQGTTVTVSS VL: not shown","IC50, live SARS-CoV-2 neutralisation on Vero E6 cells (plaque / focus assay)",[1],0.00728 µg/mL
same,"IC50, live SARS-CoV-2 neutralisation on Vero E6 cells (plaque / focus assay)",[2],0.013 µg/mL

# Source: CN113388031A (SHANGHAI INSTITUTE FOR ADVANCED STUDY OF ZHEJIANG UNIV, dated 2021)
